Among the data in PMC5582869 are percent of parent values, retold here.

The chains are these.
B1: human ZDHHC6 (WT), Myc-tagged [human] / human ZDHHC6 (WT), Myc-tagged [human] (parent)
chain 1: MGTFCSVIKFENLQELKRLCHWGPIIALGVIAICSTMAMIDSVLWYWPLHTTGGSVNFIMLINWTVMILYNYFNAMFVGPGFVPLGWKPEISQDTMYLQYCKVCQAYKAPRSHHCRKCNRCVMKMDHHCPWINNCCGYQNHASFTLFLLLAPLGCIHAAFIFVMTMYTQLYHRLSFGWNTVKIDMSAARRDPLPIVPFGLAAFATTLFALGLALGTTIAVGMLFFIQMKIILRNKTSIESWIEEKAKDRIQYYQLDEVFVFPYDMGSRWRNFKQVFTWSGVPEGDGLEWPVREGCHQYSLTIEQLKQKADKRVRSVRYKVIEDYSGACCPLNKGIKTFFTSPCTEEPRIQLQKGEFILATRGLRYWLYGDKILDDSFIEGVSRIRGWFPRKCVEKCPCDAETDQAPEGEKKNR
chain 2: B1 chain 1

In the assay the parent is B1. The experiment in a line: co-immunoprecipitation (IP with myc antibodies, anti-GFP immunoblot, densitometry). The conditions noted are these: HeLa cells transfected for 24 hr, n = 4, parent: 100, read off a plot. Background: In western blotting, separated proteins are transferred to a membrane and probed.
For chain 1 MGTFCSVIKFENLQELKRLCHWGPIIALGVIAICSTMAMIDSVLWYWPLHTTGGSVNFIMLINWTVMILYNYFNAMFVGPGFVPLGWKPEISQDTMYLQYCKVCQAYKAPRSHHCRKCNRCVMKMDHHCPWINNCCGYQNHASFTLFLLLAPLGCIHAAFIFVMTMYTQLYHRLSFGWNTVKIDMSAARRDPLPIVPFGLAAFATTLFALGLALGTTIAVGMLFFIQMKIILRNKTSIESWIEEKAKDRIQYYQLDEVFVFPYDMGSRWRNFKQVFTWSGVPEGDGLEWPVREGCHQYSLTIEQLKQKADKRVRSVRYKVIEDYSGAAAPLNKGIKTFFTSPATEEPRIQLQKGEFILATRGLRYWLYGDKILDDSFIEGVSRIRGWFPRKCVEKCPCDAETDQAPEGEKKNR [chain 1 C328A C329A C343A], the percent of parent was 39 % of WT.
